This is an account of results in patent US20080227711A1 (LABORATOIRES SERONO, published 2008).

In experiment [1] the target is T1, CXCL8/IL-8 (UniProt P10145 28-99, limits assumed).
T1 construct: also called 125I-CXCL8/IL-8; 125I-IL-8
T1 sequence (looked up): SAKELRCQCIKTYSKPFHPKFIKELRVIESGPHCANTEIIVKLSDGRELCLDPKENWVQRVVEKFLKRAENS
The experiment in a line: SPR (Biacore 3000), Evasin-3 from E. coli immobilized on CM4 chip, Kd=kd/ka. On the technique in general: Surface plasmon resonance follows binding to a sensor surface in real time, without labels.

The target in experiment [2] is T2, CXCL1/Gro-alpha (UniProt P09341 35-107).
T2 construct: also called Gro-α; 125I-CXCL1/Gro-alpha
T2 sequence: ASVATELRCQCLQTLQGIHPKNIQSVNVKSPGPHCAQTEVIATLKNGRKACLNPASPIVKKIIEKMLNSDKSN
The experiment is described as above.

In experiment [3] the target is T3, murine CXCL1/KC (murine, UniProt P12850 25-96).
T3 sequence: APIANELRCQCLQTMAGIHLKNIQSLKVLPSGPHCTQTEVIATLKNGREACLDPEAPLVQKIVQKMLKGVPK
The description is as above.

Experiment [4] has as its target T4, murine CXCL2/MIP-2 (murine, UniProt P10889 28-100).
T4 sequence: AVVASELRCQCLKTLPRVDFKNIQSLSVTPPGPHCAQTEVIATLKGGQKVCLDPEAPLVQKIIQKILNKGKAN
The description is as above.

Experiment [5] addresses T5, CCL11/eotaxin (UniProt P51671 24-97).
T5 construct: also called 125I-eotaxin
The experiment in a line: SPR (Biacore 3000), Evasin-3 from E. coli immobilized on CM4 chip, chemokine injected.

For experiment [6], the target named is T6, CCL3/MIP-1-alpha (UniProt P10147 24-92).
T6 construct: also called MIP-1α
T6 sequence: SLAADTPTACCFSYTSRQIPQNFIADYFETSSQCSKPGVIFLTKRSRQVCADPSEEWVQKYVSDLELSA
The experiment is described as above.

Experiment [7] concerns the target T7, CCL4/MIP-1-beta (UniProt P13236 24-92).
T7 construct: also called MIP-1β
T7 sequence: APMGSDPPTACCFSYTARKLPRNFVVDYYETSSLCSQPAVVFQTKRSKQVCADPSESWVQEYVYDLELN
The experiment is described as above.

In experiment [8] the target is T8, CCL18/PARC (UniProt P55774 21-89).
T8 sequence: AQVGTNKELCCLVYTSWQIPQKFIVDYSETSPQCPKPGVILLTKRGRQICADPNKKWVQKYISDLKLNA
Described as above.

For experiment [9], the target named is T9, CCL2/MCP-1 (UniProt P13500 24-99).
T9 construct: also called 125I-MCP-1
T9 sequence (P13500 24-99 limits assumed): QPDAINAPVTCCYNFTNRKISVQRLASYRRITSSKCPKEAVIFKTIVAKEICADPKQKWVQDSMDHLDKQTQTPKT
The experiment is described as above.

For experiment [10], the target named is T10, CXCL12/SDF-1-alpha (UniProt P48061 22-89).
T10 construct: also called SDF-1α
T10 sequence (P48061 22-89 limits assumed): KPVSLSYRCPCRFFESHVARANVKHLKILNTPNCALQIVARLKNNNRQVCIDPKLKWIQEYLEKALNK
Described as above.

Experiment [11] concerns the target T11, CCL5/RANTES (UniProt P13501 24-91).
T11 construct: also called 125I-CCL5/RANTES
T11 sequence: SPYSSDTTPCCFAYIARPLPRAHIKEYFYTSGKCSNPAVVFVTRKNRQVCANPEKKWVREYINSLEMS
The description is as above.

Experiment [12] has as its target T12, CX3CL1/Fractalkine (UniProt P78423 25-100).
T12 sequence: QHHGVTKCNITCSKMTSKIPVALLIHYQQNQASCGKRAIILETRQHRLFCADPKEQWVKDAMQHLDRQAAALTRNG
The experiment is described as above.

Experiment [13] concerns the target T1, CXCL8/IL-8. Put plainly: equilibrium competition receptor binding assay: inhibition of 0.1 nM 125I-IL-8 binding to CHO/CXCR1 cells.
Experiment [14] addresses T1, CXCL8/IL-8. The experiment in a line: SPR (Biacore 3000), Evasin-3 from E. coli immobilized on CM4 chip, chemokine injected, Langmuir global fit.
Experiment [15] has as its target T2, CXCL1/Gro-alpha. The description is as above.
In experiment [16] the target is T3, murine CXCL1/KC. Described as above.
For experiment [17], the target named is T4, murine CXCL2/MIP-2. The description is as above.

T5 sequence (P51671 24-97 limits assumed): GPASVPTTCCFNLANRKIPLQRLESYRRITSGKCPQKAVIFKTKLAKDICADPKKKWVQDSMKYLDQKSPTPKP

B1: recombinant Evasin-3 produced in E. coli (Met-Evasin-3) (other)
chain: MLVSTIESRTSGDGADNFDVVSCNKNCTSGQNECPEGCFCGLLGQNKKGHCYKIIGNLSGEPPVVRR
notes: No tag, not glycosylated; also called mature Met-Evasin-3
One may read the Kd as the constant that tells how readily two partners part at equilibrium. High values mean a looser complex, low ones a tighter complex. One may read the IC50 as the point on the concentration scale where inhibition reaches its midpoint. A higher IC50 goes with a need for much substance. By koff is commonly meant the first-order rate constant of dissociation. What is called kon is a measure of how fast the partners come together. Take B1: the Kd turned out to be 0.53 nM in [1], 1.21 nM in experiment [2], 4.56 nM in experiment [3] and 0.84 nM in experiment [4]. Besides, the binding result in [5], in experiment [6], in experiment [7], in [8], in experiment [9] and in experiment [10] was “no binding (tested: 0.5 µg/ml chemokine)” each time. For the same molecule, the binding result in experiment [11] and in experiment [12] was “no binding (tested: 0.5 µg/ml chemokine)” each time. In experiment [13], this molecule displayed an IC50 of 20 nM. In addition, the koff worked out at 0.00032 s⁻¹ in experiment [14], 0.00269 s⁻¹ in [15], 0.00235 s⁻¹ in experiment [16] and 0.000878 s⁻¹ in experiment [17]. Besides, the on-rate constant (kon) in [14] was 603000 M⁻¹ s⁻¹; in experiment [15] it was 2.23e+06 M⁻¹ s⁻¹; in experiment [16] it was 514000 M⁻¹ s⁻¹; in [17], 1.05e+06 M⁻¹ s⁻¹.
